# T1: recombinant RIM1 PDZ-domain (rat RIM1 residues 596-704) (rat, UniProt Q9JIR4 596-704, ^15N-labeled (for the HSQC spectra))
# T1 sequence (looked up): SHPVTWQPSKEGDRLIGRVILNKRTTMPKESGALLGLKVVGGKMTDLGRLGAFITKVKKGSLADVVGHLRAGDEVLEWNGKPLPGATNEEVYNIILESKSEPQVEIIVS
# Tests used:
# [1] = target: recombinant RIM1 PDZ-domain (rat RIM1 residues 596-704) (rat) (UniProt Q9JIR4); assay: ITC
# [2] = target: T1, recombinant RIM1 PDZ-domain (rat RIM1 …); assay: ITC
Kd [1] [µM],stoichiometry N [1],Kd [2] [µM],stoichiometry N [2],Molecule
23.4,0.93,–,–,C-terminus of N-type Ca^2+-channels (tested by HSQC and calorimetry) (from UniProt Q00975 1-2339) (domain or fragment)
–,–,10.3 ± 0.6,0.93,RHDAYSESEDDWC [peptide from the C-terminus of the P/Q-type Ca^2+-channel (residues RHDAYSESEDDWC)]

# Reference: publication PMC3063406 (Cell, 2011)
